Experimental data as given in the nanobody polyreactivity screen of Harvey et al. (2022).

Assay: yeast display, Sf9 membrane polyspecificity reagent, FACS + sequencing; frameworks hold sequencing errors
Outline: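 Galactose induction of a Saccharomyces cerevisiae BJ5465 synthetic nanobody display library ran 36–48 hours. The cells were then stained for 1 hour at 4 °C with 10% biotinylated, detergent-solubilized Sf9 membrane reagent, pulled down on streptavidin microbeads and FACS-sorted into low and high (top ~1%) gates on expression and reagent-binding fluorescence. Labels for polyreactivity follow the gate of origin.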

Row | Sequence | polyreactivity (PSR sort gate)
1 | QVQLVESGGGLVQAGGSLRLICAASGNIFTYYAMGWYRQAPWKERELVAAISSGDSTNYADSVKGRFTISRDNAKNTVYLQMNSLKPEDTAVYYCNVDRVPSRRYYAQKGYFRYYYWGQGTQVTVSS | high polyreactivity
2 | QVQLVESGGGLVQAGGSLRLSSAASGSTFAEYAMGWYRQAPGKERELVAAIRWSGGSTSYADSVKGRFTISRDNAKNTVYLQMNSLKPEDTAVYYCAAERFWYDGEVKLYVLSYYWGQGTQVTVSS | low polyreactivity
3 | QVQLVESGGGLVQAGGSLRLSCAASGSIFGYYDMGWYRQAPGKERELVAAISYRGSSTYYADSVKGRFTISRDNAKNTVYLQMNSLKPEDTAVYYCASRYYYSYPPQEDDYWGQGTQVTVSS | high polyreactivity
4 | HVQLQESGGGLVQPGGSLRLSCAASGNISFSRNMGWYRQAPGKERELVAAIDRGAITYYGDSVKGRFTISRDNAKNTVYLQIYSLKPEDTAVYYCAAEYHDGWDHRYWGQGTQVTVSS | high polyreactivity
5 | QVQLVESGGGLVQAGGSLRLSCAASGFTFIYYAMGWYRQAPGKERELVAAISKRGGSTYYADSVKGRFTISRDTAKNTVYLQMYSLKPEDTAVYYCAPAFGQRRYDYWGQGTQVTVSS | high polyreactivity
6 | QVQLVESGGGLVQAGGSLRLSCDASGSIFSYYAMGWYRQAPGKERELVAAITYRGGSTFYADSVKGRFTLSRDNAKNTVYFQMNRLKPEDTAVYYCATRYYVDQRYQYKYDYWGQGTQVTVSS | high polyreactivity
7 | QVQLVESGGGLVQAGGSLRLSCAASGSTFYFNAMGWYRQAPGKEREFVAAITYSGGSTNYADSVKGRFTISRDNAKNTVYLQMNSLKPEDTAVYYCAARRYSYYYWYDYWGQGTQVTVSS | high polyreactivity
8 | QVQLVESGGGLVQAGGSLRLSCASSGSTFDYYMGWYRHAPGKERELVAAITYSGGSTYYADSVKGRFTISRDNAKNTVYLQMKSLKPEDTAVYYCAKDRSTFDDFYSNYYWGQGTQVTVSS | low polyreactivity
9 | QVQLVETGGGLVQAGGSLRLSCAASGFTFTGNTMGWSRQAPGKERELVAAISQSGSRTYYADSVKGRFTISRDNAKNTVYLQMNSLKPEDTAVYYCNADYSSYWTSYDYWGQGTQVTVSS | high polyreactivity
10 | QVQLVESGGGIVQAGGSLRLSCAASGSIFHGYAMGWYRQAPGKERELVASITWNGGSTYYADSVKGRFTISRDNAKNTVYLQMNSLKPEDTAVYYCATSKWRGRGRTYDYWGQGTQVTVSS | high polyreactivity
11 | QVQLVESGGGLVQAGGSLRLSCAASGRIFPSYAMGSSRQAPGKEREFVAAITWSGTDTYYADSVQGRFTISRDNAKNTVYLQMTSLKPEDTAVYYCAAEEYVEVDTTAYDYWGQGTQVTVSS | low polyreactivity
12 | QVQLVETGAGLVQAGGSLRLSCAPSGNTLGPYAKGWYRQGPGKERELVAAITWSGGITDYADSVKGRLTISRDNAKKTVYLQMNSLKPEDTAVYYCATKLTYTLTSGAYAYDYWGQGTQVTVSS | low polyreactivity
13 | QVQLVESGGGLVQAGGSLRLSCAASGSIFYEYAMGWYRQAPGKEREFVAAISSSGGSTYYADSVKGRFTISRDNAKNTVYLQMNSLKPEDTAVYYCAADIYYYLWGLYYWGQGTQVTVSS | low polyreactivity
14 | QVQLVESGGCLLQAGGSLRLSCAASGYTFGKNAMGWYRPAPGKERELVARIRTNGGTTYYADSVKGRFTISRDIAKYTVYLQMYSLKPEDTAVDYCNAYRGYEYDYWGQGTHVTVSS | low polyreactivity
15 | QVQLEESGGGLVQAGGSLRLSCAASGSIFYDNVMGWSRQAPGKERELVAGITRGGSTNYADSVKGPFTISRDNAKNTVYLQMNSLKPEDTAVSYCAADGTYVWGSEEGNYWGQGTQVNVSS | low polyreactivity
16 | QVQLVESGGGLVQAGGSLRLSCAASGGTFDSNAMGWYRQAPGKERELVAAISSGGSTYYADSVKGRFTISRDNAKNTVYLQMNSLKPEDTAVYYCAADSSGGASAPMDYWGQGTQVTVSS | low polyreactivity
17 | QVQLVESGGGLVQAGGSLRLSCAASGRTFAKYAMGWYRQAPGKERELVAAITSGGRTNYADSVKGRFTISRDNAKNTVYLQMNSLKPEDTAVYYCAARRYVVGYFQSKMDYWGQGTQVTVSS | high polyreactivity
18 | QVQLVESGVGLVQAGGSLRLSCAASGIIFFFYAMGWYIQAPGKERELVAAISDDGVSTDYADSVKGRFTISRDNAKNTVYLQMNSLKPEDTAVYYCSAKNERVYPWFSFGYWGQGTQVTVSS | low polyreactivity
19 | QVQLVESGGGLVQAGGSLRLSCAASGLIYFYAMGWYRQAPGKERELVAAISSTGGRTYYADSVKGRFTIARDNAKNTVYLQMNSVKPEDTAVYYCNVLVYNVYTRGYYSYKYYFWGQGTQVTVSS | high polyreactivity
20 | QVQLVESGGGLVQAGGSLRLSCAASGIIFGSYAIGWYRQAPGKERELVAGISRRGDSTYYADSVKGRFTISRDNAKNTVYLQMNSLKPEDTAVYYCAARWFRRSTYLYYYWGQGTQVTVSS | high polyreactivity
21 | QVQLVESGGGLVQAGGSLRLSCAASGLIFPVYAMGWYRQAPGKDREFVASIWRGGTTYYADSVKGRFTISRDNAKNTVYLQMNSLKPEDTAVYYCAAVVYSRGYYWGQGTQVTVSS | high polyreactivity
22 | QVQLVESGGGLVQAGGSLRLSCAASGIIFYSYVMGWYRQAPGKERELVAVISRSGGRTYYADSVKGRFTISRDNAKNTVYLQMISLKPEDTAVYYWAAALGVALNDYWGQGTQVTVSS | high polyreactivity

Row | Sequence | polyreactivity (PSR sort gate)
23 | QVQLVESGGGLVQAGGSLRLSCAASGRIFKPYVMGWYRQAPGKERELVASITWNGGRTYYADSVKGRFTISRDNAKNTVYLQMNSLKPEDTAVYYCAADYWTTADPRNIIKYDYWGQGTQVTVSS | high polyreactivity
24 | QVQLVESGGGLFQAGGSLRLSCAAYGRTFYVYALGWYRQAPGKEREFVAAITSSGGSTYYADSVKGRFTISRDNAKNTVYLQMNSLKPEDTAVYYCAADDWDWENDYWGQGTQVTVSS | low polyreactivity
25 | QVQLVESGGGLVQAGGSHRLSCAASGRTLGGYAMGWSRQAPGKERELVAAISYSGGSTYYADSVKGRFTISRDNAKNTVYLQMNSLKAEFTAVYYCARDYSWYYYGSQLFAHDYWGQGTQVTVSS | low polyreactivity
26 | QVQLVESGGGLVQAGGSLRLSCAASGSILDPNAMGWYRQAPGKERELVASISRGDNTYYADSVKGRFTISRDNAKNTVYFQMNSLKPEDTAVYDCAADYSWVVWHDYWGQGTQVTVSS | low polyreactivity
27 | QVQLVESGRGLVQAGGSLRLSCAASGFTFLLNAMGWYRQAPGKERELVAAITYSGGSTYYADSVKGRFTISRDNAKNTVYLQMNSLKPEDTAVYYCAKTSVTISEYEYWGQGTQVTVSS | low polyreactivity
28 | QVQLVESGRGLVQAGGSLRLSCAASGSIFRRYAMGWYRQAPGKERELVAGITRSGGNTYYADSVKGRFTISRDNAKNTVYLQMNSLKPEDTAVYYCAARHRYNIRTYDAWGQGTQVTVSS | high polyreactivity
29 | QVQLVESGGGLFQAVGSLRLSCAASGLFFIKYTMGWYRQAPGKERELFAVISGSGGSTYYADSVKGRFTISRDNAKNTVYLQMNSLKPEDTAVYYCAARSYALGYGGGYWGQGTQVTVSS | high polyreactivity
30 | QVQLVESGGGLVQAGGSHRLSCAASGRTFWYYTMGWYRQAPGKERELVAAINWRGGTTYYADSVKGRFTISRDNAMNTVYLQMNSLKPEDTAVYYCAATHWAYSRVPYDYWGQGTQVTVSS | high polyreactivity
31 | QVQLVESGGGLVQAGGSLRLSCAASGSTFVRYVMGWYRQAPGKERELVAAISEGGGSTYYADSVKGRFTISRDNAKNTVYLQMNSLKPEDTAVYYCAAGRSNSYSPRRRVTYGYNYWGQGTQVTVSS | high polyreactivity
32 | QVQLVESGGGLVQAGGSLRLSCAASGFTFPGYAMGWYRQAPGKERKLVAAITGSGGRTYYADSVKGRFTISRDNAKNTVYLQMNSLKPEDTAVYYCLARSYYNWYDYWGQGTQVTVSS | high polyreactivity
33 | QVQLEDSGGGLVQAGGSLRLSCAASGSTFNQYAMGWYRQATGKERELVAAITTSGARTYYADSVKGRFTISRDNAKNTVYLQMNSLKPEDTAVYYCNAGYFSYRYRYGYDYWGLGTQVTVSS | high polyreactivity
34 | QVQLVESGGGLVQAGGTLRLSCAASGSTFSVNAMGWYRQAPGKERELVASITTSGGSTNYADSVKGRFTISRDNAKNTVYLQMNSLKPEDTAVYYCNDDTPGSSPSDYNYWGQGTQVTVSS | low polyreactivity
35 | QVQLVESGGGLVQAGGSLRLSCAASGFTLGVNAMGWYRQAPGKERELVAAISRGGSTDYADSVKGRFTISRDNAKNTVDLQMYSLKPEDTAVYYCAAETYAWYRGWEGYWGPGTQVTVSS | high polyreactivity
36 | QVQLVESGVGLVQAGGSLRLSCAASGSNFNTYTMGRYRQAPGKERELVAAITWSGGRTYYADSVKGRFTISRDNAKNTVYLQMNSLKPEDTAGYYCAADWGEDYTRDDYWGQGTQVTVSS | low polyreactivity
37 | QVQLVESGGGLVQAGGSLRLSCAASGGTFVTNAMGWYRQAPGKERELVAAISYDGGITYYADSVKGRFTISRDNAKNTVYLQMNSLKPEDTAVYYCAAYRRYRNWFNYWGQGTQVTVSS | high polyreactivity
38 | QVQLVESGGGLVQAGGRLRLSCAASGRIFATNAMGWYRQAPGKERELVATITRSAGRTYYADSVKGRFTISRDNAKNTVYLQMNSLKPEDTAVYYCAADGYSTAVDDTVRYIVEYEFWGQGTQVTVSS | low polyreactivity
39 | QVQLVESGGGLVQAGGSLRLICAASGSTFYKYNMGWYRQAPGKERELVAAISGSGTTTYYADTVKGRFTISRDNAKNTVYLQMNSLKPEDTAVYYCAARRFSPGSSGHGYWGQGTQVTVSS | high polyreactivity
40 | QVQLVESGGGLVQAGGSLRLSCAASGRIFGGNTMGWYRQAPGKERELVAAITSGGSTTYADSVKGRFTISRDNAKNTVYLHMNSLKPEDSEVYYCAARYVYPHQWTPYIRPYDYWGQGTQVTVSS | low polyreactivity
41 | QVQLVESGGGLVQAGGSLRLSCAASGSTFFGYDMGWSRQAPGKERELVATINSGGSTYYADSVKGRFTISRDNAKNTVYLQMNSLKPADTAVYYCAARPSYLYPYDRTGEYDYWGQGTQVTVSS | high polyreactivity
42 | QVQIVESGGGLVQAGGSLRISCAASGRTFSWNPMGWYRQAPGKERELVAGITGRGRSTYYADSVKGRFTISRDNAKLTVYLQMNSLTPEDTAVYYCAADSYRSSSPYGYWGQGTQVTVSS | high polyreactivity
43 | QVQLVESGGGLVQAGGSLRLSCAAYGSTFQRYAMGWYRQAPGKERELVAAITLSGGNTYYADSVKGRFTISRDNAKNNVYLQMNSLKPEDTAVYYCAARRYRGYDYWGQGTQVTVSS | high polyreactivity
